Measurements as given in patent publication US20150203579A1 (Regeneron, published 2015).
Read-outs that look alike come from different tables or passages of the source.

Tests used:
[1] = target: T1, PD-1 chimera: extracellular domain of human PD-1 with trans-membrane and cytoplasmic domains of human CD300a, … (human, UniProt Q9UGN4 181-299, limits assumed); assay: cell-based or functional assay
[2] = target: T2, recombinant human PD-1 dimer expressed with a C-terminal mouse IgG2a Fc tag (human); assay: BLI Octet: 100 nM hPD-1-mFc + 500 nM mAb to captured hPD-L1-hFc
T2 construct: also called hPD-1-mFc
Target sequence in this assay (chain, as listed by the source limits assumed): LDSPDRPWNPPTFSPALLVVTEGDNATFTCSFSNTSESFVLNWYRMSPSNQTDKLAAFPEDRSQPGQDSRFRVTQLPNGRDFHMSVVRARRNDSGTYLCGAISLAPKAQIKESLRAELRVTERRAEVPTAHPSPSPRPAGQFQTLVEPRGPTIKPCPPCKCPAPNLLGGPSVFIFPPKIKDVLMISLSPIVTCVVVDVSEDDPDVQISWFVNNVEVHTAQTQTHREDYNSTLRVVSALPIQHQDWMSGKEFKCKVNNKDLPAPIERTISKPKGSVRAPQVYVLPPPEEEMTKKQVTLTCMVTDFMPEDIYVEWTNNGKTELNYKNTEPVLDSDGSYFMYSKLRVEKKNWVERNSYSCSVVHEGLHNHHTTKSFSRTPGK
Method: Inhibition studies for anti-PD-1 monoclonal antibodies expressed with a mouse Fc were performed on an Octet Red 96 instrument. […] The biosensors were washed in Octet HBST buffer in between each step of the experiment. The real-time binding responses were monitored during the entire course of the experiment and the binding response at the end of every step was recorded.

[3] = target: T3, full length human PD-1 on HEK293/hPD-1 cells (human, UniProt Q15116 25-288); assay: FACS dose response, HEK293/hPD-1 cells; EC50 Inconclusive
T3 sequence (Q15116 25-288 limits assumed): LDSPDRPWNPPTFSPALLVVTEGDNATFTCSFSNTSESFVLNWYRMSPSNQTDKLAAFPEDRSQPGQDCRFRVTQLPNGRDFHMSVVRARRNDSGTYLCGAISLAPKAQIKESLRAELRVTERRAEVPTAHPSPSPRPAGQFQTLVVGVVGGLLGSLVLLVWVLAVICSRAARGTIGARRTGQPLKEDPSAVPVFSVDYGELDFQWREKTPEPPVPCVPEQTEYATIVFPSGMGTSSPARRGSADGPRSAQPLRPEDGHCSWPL
Method: For the assay, adherent cells were detached using trypsin and blocked with complete medium. Cells were centrifuged and resuspended at a concentration of 6×10̂6 cells/mL in staining buffer (1% FBS in PBS). To determine the EC₅₀ and Eₘₐₓ of the anti-PD1 antibodies, 90 uL of cell suspension was incubated for 30 minutes on ice with a serial dilution of anti-PD-1 antibodies and controls diluted to a final concentration ranging from 5 pM to 100 nM (no mAb sample was included as negative control) in staining buffer. Cells were then centrifuged and pellets were washed once with staining buffer to remove unbound antibodies. […] The following day, cells were centrifuged and pellets were washed once with staining buffer, resuspended and filtered. Fluorescence measurements were acquired on Hypercyt® cytometer and analyzed in ForeCyt™ (IntelliCyt; Albuquerque, N. Mex.) to determine the mean fluorescence intensities (MFI). The EC₅₀ values were calculated from a four-parameter logistic equation over an 11-point response curve using GraphPad Prism. Eₘₐₓ for each antibody was defined as the binding at the highest antibody dose (100 nM) tested.

[4] = target: T3, full length human PD-1 on HEK293/hPD-1 …; assay: FACS, 100 nM mAb
Method: (§1) For the assay, adherent cells were detached using trypsin or enzyme-free dissociation buffer and blocked with complete medium. Cells were centrifuged and resuspended at a concentration of 2.5-6×10̂6 cells/mL in cold PBS containing 2% FBS. HEK293 parental and HEK293/hPD-1 cells were then incubated for 15-30min on ice with 100 nM of each anti-PD-1 antibody. […] Cells were washed with D-PBS containing 2% FBS to remove unbound secondary F(ab′)2 and fluorescence measurements were acquired using either a HyperCyte (IntelliCyt, Inc.) flow cytometer or an Accuri flow cytometer (BD Biosciences). Data was analyzed using FlowJo software (Tree Star).

[5] = target: T3, full length human PD-1 on HEK293/hPD-1 …; assay: FACS, 100 nM mAb, HEK293/hPD-1 cells;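 also: antibodies incubated with cells for 15-30 min on ice, bound antibody detected through a secondary F(ab′)2 by flow cytometry, with parental HEK293 cells tested in parallel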
Method: as §1

[6] = target: T4, recombinant human PD-L1 expressed with a C-terminal mouse IgG2a Fc tag (human); assay: SPR Biacore 3000: 500 nM mAb alone (no hPD-1.hFc) over captured hPD-L1.mFc surface, control
T4 construct: also called hPD-L1-mFc; hPD-L1.mFc

[7] = target: T1, PD-1 chimera: extracellular domain of …; assay: cell-based or functional assay; remark: listed apart in the source
[8] = target: T5, recombinant human PD-1 expressed with a C-terminal human IgG1 Fc tag (human); assay: SPR Biacore 3000: 100 nM hPD-1.hFc + 500 nM mAb to captured hPD-L1.mFc;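 also: inhibition study with anti-PD-1 mAbs, SPR responses tracked in real time and read at the close of each step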
T5 construct: also called hPD-1-hFc; hPD1-hFc
T5 sequence (chain, as listed by the source limits assumed): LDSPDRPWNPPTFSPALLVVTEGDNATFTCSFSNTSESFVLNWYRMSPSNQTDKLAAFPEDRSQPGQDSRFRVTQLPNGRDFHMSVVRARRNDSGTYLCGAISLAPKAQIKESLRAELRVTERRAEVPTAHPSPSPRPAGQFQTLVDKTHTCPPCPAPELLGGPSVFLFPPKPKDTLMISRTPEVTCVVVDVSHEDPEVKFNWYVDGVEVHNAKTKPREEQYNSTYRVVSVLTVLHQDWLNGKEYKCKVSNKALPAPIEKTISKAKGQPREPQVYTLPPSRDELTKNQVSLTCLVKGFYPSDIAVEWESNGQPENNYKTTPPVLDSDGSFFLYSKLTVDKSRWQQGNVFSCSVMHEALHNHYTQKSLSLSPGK
Method: Next, inhibition studies for anti-PD-1 monoclonal antibodies expressed with human Fc were performed on a Biacore 3000 instrument. […] The real-time binding responses were monitored during the entire course of the experiment and the binding response at the end of every step was recorded.

monkey PD-1 with mFc [9] = target: T6, monkey PD-1 with mFc (monkey); assay: SPR, captured mAb, 37 C;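 also: Real-time Biacore surface plasmon resonance biosensor readout of PD-1 reagent binding to purified anti-PD-1 monoclonal antibodies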
T6 construct: also called monkey PD-1-mFc; monkey PD-1 dimer
T6 chain: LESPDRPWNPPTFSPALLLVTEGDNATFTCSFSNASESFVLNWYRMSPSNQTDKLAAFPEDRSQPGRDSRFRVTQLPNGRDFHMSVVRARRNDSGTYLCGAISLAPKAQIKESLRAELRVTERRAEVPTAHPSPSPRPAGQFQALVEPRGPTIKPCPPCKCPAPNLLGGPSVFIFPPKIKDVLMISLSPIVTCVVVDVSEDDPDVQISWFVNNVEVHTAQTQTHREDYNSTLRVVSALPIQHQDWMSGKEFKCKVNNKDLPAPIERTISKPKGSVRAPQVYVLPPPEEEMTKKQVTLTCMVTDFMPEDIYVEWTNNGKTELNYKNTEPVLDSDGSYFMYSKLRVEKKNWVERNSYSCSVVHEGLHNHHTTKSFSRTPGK
Method: (§2) Binding association and dissociation rate constants (kₐ and kd, respectively), equilibrium dissociation constants and dissociation half-lives (KD and t_{1/2}, respectively) for antigen binding to purified anti-PD1 antibodies were determined using a real-time surface plasmon resonance biosensor assay on a Biacore 4000 or Biacore T200 instrument. […] Experiments were performed at 25° C. and 37° C. Kinetic association (kₐ) and dissociation (kd) rate constants were determined by processing and fitting the data to a 1:1 binding model using Scrubber 2.0c curve fitting software. Binding dissociation equilibrium constants (KD) and dissociative half-lives (t_{1/2}) were then calculated from the kinetic rate constants as: KD(M)=kd/kₐ and t_{1/2} (min)=[In2/(60*kd)].

monkey PD-1 with mFc [10] = target: T6, monkey PD-1 with mFc; assay: SPR, captured mAb, 25 C;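 also: purified anti-PD-1 antibodies tested on Biacore 4000 or T200 instruments, rate constants obtained via 1:1 binding model fit, with KD as kd/ka and half-life as ln2/(60·kd)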
Method: as §2

[11] = target: T7, recombinant cynomolgus monkey PD-1 expressed with a C-terminal myc-myc-hexahistidine tag (cynomolgus monkey (Macaca fascicularis)); assay: SPR (Biacore), MfPD-1-MMH, 25 C; end of range tied to H4xH8999P by Table 8
T7 construct: Monomeric reagent; also called MfPD-1-MMH
T7 chain: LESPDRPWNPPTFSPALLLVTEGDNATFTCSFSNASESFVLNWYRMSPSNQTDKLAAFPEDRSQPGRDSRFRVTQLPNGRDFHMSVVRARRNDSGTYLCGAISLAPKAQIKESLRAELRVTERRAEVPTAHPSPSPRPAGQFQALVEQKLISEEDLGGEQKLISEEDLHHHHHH
Method: as §2

[12] = target: T8, recombinant human PD-1 expressed with a C-terminal myc-myc-hexahistidine tag (human); assay: SPR (Biacore), mAb captured, hPD-1-MMH injected, 25 C;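 also: rate constants obtained by fitting sensorgrams to a 1:1 binding model, KD derived as kd/ka and half-life as ln2/(60·kd) in minutes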
T8 construct: also called hPD-1-MMH; human PD-1-MMH
Method: as §2

monkey PD-1 with mFc [13] = target: T6, monkey PD-1 with mFc; assay: SPR, captured mAb, 37 C; no dissociation observed, kd fixed at 1.00E-05;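 as to 100 nM Monkey PD-1-mFc Bound (RU): Real-time Biacore surface plasmon resonance biosensor readout of PD-1 reagent binding to purified anti-PD-1 monoclonal antibodies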;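 as to koff: Real-time Biacore surface plasmon resonance biosensor readout of PD-1 reagent binding to purified anti-PD-1 monoclonal antibodies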;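 as to kon: Real-time Biacore surface plasmon resonance biosensor readout of PD-1 reagent binding to purified anti-PD-1 monoclonal antibodies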
Method: as §2

[14] = target: T2, recombinant human PD-1 dimer expressed …; assay: competition ELISA: 1.5 nM hPD-1-mFc to coated hPD-L1-hFc
Method: (§3) Data analysis was performed using a sigmoidal dose-response model within Prism™ software (GraphPad). […] Percent maximum blockade was calculated as a measure of the ability of the antibodies to completely block binding of human PD-1 to human PD-L1 or PD-L2 on the plate as determined from the dose curve.

[15] = target: T2, recombinant human PD-1 dimer expressed …; assay: competition ELISA: 100 pM hPD-1-mFc to coated hPD-L2-hFc
Method: as §3

monkey PD-1 with mFc [16] = target: T9, monkey PD-1 with mFc (monkey (MfPD-1)); assay: SPR (Biacore), monkey PD-1-mFc, 37 C; end of range tied to H4xH9008P by Table 11 (kd fixed at 1.00E-05)
T9 construct: also called monkey PD-1-mFc; monkey PD-1 dimer
T9 chain: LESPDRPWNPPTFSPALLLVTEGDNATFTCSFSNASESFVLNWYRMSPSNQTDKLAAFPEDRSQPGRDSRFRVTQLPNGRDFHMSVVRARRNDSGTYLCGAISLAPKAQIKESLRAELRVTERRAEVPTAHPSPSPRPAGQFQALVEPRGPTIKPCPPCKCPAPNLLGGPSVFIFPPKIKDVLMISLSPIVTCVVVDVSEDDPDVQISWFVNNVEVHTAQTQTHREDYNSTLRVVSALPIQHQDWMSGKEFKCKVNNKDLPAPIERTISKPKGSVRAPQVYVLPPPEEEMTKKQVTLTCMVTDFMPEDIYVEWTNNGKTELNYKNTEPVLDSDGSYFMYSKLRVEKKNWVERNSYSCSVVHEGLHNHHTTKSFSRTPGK
Method: as §2

[17] = target: T7, recombinant cynomolgus monkey PD-1 …; assay: SPR (Biacore), MfPD-1-MMH, 25 C; end of range tied to H4H9057P2 by Table 8
Method: as §2

[18] = target: T10, recombinant human PD-1 dimer expressed with a C-terminal mouse IgG2a Fc tag (human); assay: competition ELISA: blocking 1.5 nM hPD-1-mFc binding to coated hPD-L1-hFc; end tied to H4H9057P2 by Table 12 (below theoretical bottom 0.75 nM)
T10 construct: also called hPD-1-mFc; human PD-1-mFc
Method: as §3

[19] = target: T7, recombinant cynomolgus monkey PD-1 …; assay: SPR (Biacore), MfPD-1-MMH, 37 C; end of range tied to H4xH9045P by Table 9
Method: as §2

monkey PD-1 with mFc [20] = target: T9, monkey PD-1 with mFc; assay: SPR (Biacore), monkey PD-1-mFc, 25 C; end of range tied to H4H9068P2 by Table 10
Method: as §2

monkey PD-1 with mFc [21] = target: T9, monkey PD-1 with mFc; assay: SPR (Biacore), monkey PD-1-mFc, 37 C; end of range tied to H4H9068P2 by Table 11
Method: as §2

[22] = target: T10, recombinant human PD-1 dimer expressed …; assay: competition ELISA: blocking 1.5 nM hPD-1-mFc binding to coated hPD-L1-hFc; end tied to H4xH9048P2 by Table 12
Method: as §3

T1 sequence (Q9UGN4 other isoform, or with tags, fused parts or gaps mutant limits assumed, form in doubt): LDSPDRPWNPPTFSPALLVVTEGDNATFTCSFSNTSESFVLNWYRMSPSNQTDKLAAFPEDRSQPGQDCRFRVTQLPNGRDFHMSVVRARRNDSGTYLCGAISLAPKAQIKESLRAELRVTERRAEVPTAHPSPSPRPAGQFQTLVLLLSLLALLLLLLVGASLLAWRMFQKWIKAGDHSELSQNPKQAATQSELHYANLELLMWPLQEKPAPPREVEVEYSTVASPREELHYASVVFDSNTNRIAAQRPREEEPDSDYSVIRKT

B1: H1M7789N (antibody, V domains shown)
VH: EVQLLESGGGLVQPGGSLRLSCSASGFTFSSYTMNWVRQAPGKGLEWVSGISDTGGNTYYTDSVKGRFTVSRDNSKNTLSLQMNSLRAEDTAVYYCAKDQGGSYPYYFHYWGQGSLVTVSS
VL: DIQMTQSPSSLSASVGDRVTITCRASQSISSYLIWYQQKPGTAPKFLIYAASSLQSGVPSRFSGCGSGTDFTLTISSLQPEDFATYYCQQSYSTPPITFGQGTRLEIK
notes: human variable regions, mouse IgG1 Fc
- Emax mean [%] @ 100 nM [1]: 135%
- % Blocking [2]: 29%
- binding of the mixture (nm) [2]: 0.05 nm
- Max Geom. Mean MFI @ 100 nM [3]: 35600 MFI
- ratio of MFI HEK293/hPD-1 to HEK293 parental cells [4]: 92.3
- MFI [5]: 24200 MFI

B2: H4H7795N2 (antibody, human IgG4 S228P, kappa, V domains shown)
VH: EVQVVESGGGLVEPGRSLRLSCKASGFTFDDYAMHWVRQTPGKALEWVSGISWSGNNIGYADSVKGRFTISKDDAKNSLYLQMNSLRPEDTALYYCTKDISITGTLDAFDVWGQGTMVTVSS
VL: DIQMTQSPISVSASVGDRVTITCRASQGISNWLAWYQQKPGIAPKLLIYSASSLQSGVPSRFRGSGSGTDFTLTIGSLQPEDFATYYCQQAHSFPLTFGGGTKVEIKR
notes: human IgG4 Fc
- 500 nM of anti-PD-1 monoclonal antibody (RU) [6]: -5 RU
- Emax mean [%] @ 100 nM [7]: 110%
- Max Geom. Mean MFI @ 100 nM [3]: 15200 MFI
- % Blocking [8]: 106%
- binding of the mixture (RU) [8]: -6 RU
- 100 nM Monkey PD-1-mFc Bound (RU) (monkey PD-1 with mFc [9]): 47 RU
- Kd (monkey PD-1 with mFc [9]): 1.71 nM
- koff (monkey PD-1 with mFc [9]): 0.00029 s⁻¹
- kon (monkey PD-1 with mFc [9]): 170000 M⁻¹ s⁻¹
- t1/2 (monkey PD-1 with mFc [9]): 40 min
- 100 nM Monkey PD-1-mFc Bound (RU) (monkey PD-1 with mFc [10]): 60 RU
- Kd (monkey PD-1 with mFc [10]): 0.621 nM
- koff (monkey PD-1 with mFc [10]): 9.92e-05 s⁻¹
- kon (monkey PD-1 with mFc [10]): 160000 M⁻¹ s⁻¹
- t1/2 (monkey PD-1 with mFc [10]): 116 min

B3: H4H9008P (antibody, human IgG4 S228P, kappa, V domains shown)
VH: EVQLVESGGGLVRPGGSLRLSCAASGFTFSTYAMAWVRQTPGKGLEGVSAIGGSGDSTYYVDSVKGRFTISRDNSKSTLFLQMNSLRAEDTAVYYCVKVRNYDGSFDIWGQGTMVTVSS
VL: not shown
notes: human IgG4 Fc
- 500 nM of anti-PD-1 monoclonal antibody (RU) [6]: -7 RU
- Emax mean [%] @ 100 nM [7]: 150%
- Max Geom. Mean MFI @ 100 nM [3]: 32200 MFI
- % Blocking [8]: 107%
- binding of the mixture (RU) [8]: -7 RU

B4: H4xH8999P (antibody, human IgG4, V domains shown)
VH: QLQLQESGPGLVQPSETLSLTCTVSGDSISSTAYHWDWIRQPPGKGLEWIGTITYNGNTYFNPSLKSRVTISVDTSKNQFSLKLLSMTAAETAVFYCARHLGYNSDFFPFDFWGQGTLVTVSS
VL: not shown
notes: H4xH: modified human IgG4 Fc
- Kd [11]: 3.09 nM
- Kd [12]: 4.33 nM
- t½ [12]: 9.4 min

B5: H4xH9008P (antibody, V domains shown)
VH: EVQLVESGGGLVRPGGSLRLSCAASGFTFSTYAMAWVRQTPGKGLEGVSAIGGSGDSTYYVDSVKGRFTISRDNSKSTLFLQMNSLRAEDTAVYYCVKVRNYDGSFDIWGQGTMVTVSS
VL: not shown
notes: human IgG4 Fc with 2 or more amino acid changes (US20100331527)
- 500 nM of anti-PD-1 monoclonal antibody (RU) [6]: 0 RU
- binding of the mixture (RU) [8]: 1 RU
- 100 nM Monkey PD-1-mFc Bound (RU) (monkey PD-1 with mFc [9]): 98 RU
- MFI [5]: 26200 MFI
- Kd (monkey PD-1 with mFc [13]): ≤ 0.049 nM
- t1/2 (monkey PD-1 with mFc [13]): ≥ 1160 min
- % blocking at 200 nM antibody [14]: 88%
- IC50 [14]: 2.4 nM
- Kd (monkey PD-1 with mFc [10]): 0.48 nM
- t1/2 (monkey PD-1 with mFc [10]): 200 min
- % blocking at 100 nM antibody [15]: 94%

B6: H4xH9008P (antibody, human IgG4, V domains shown)
VH: EVQLVESGGGLVRPGGSLRLSCAASGFTFSTYAMAWVRQTPGKGLEGVSAIGGSGDSTYYVDSVKGRFTISRDNSKSTLFLQMNSLRAEDTAVYYCVKVRNYDGSFDIWGQGTMVTVSS
VL: not shown
notes: H4xH: modified human IgG4 Fc
- Kd (monkey PD-1 with mFc [16]): < 0.049 nM
- Kd [12]: 31 nM
- t½ [12]: 8.7 min

B7: H4H9057P2 (antibody, human IgG4, V domains shown)
VH: EVQLVESGGGLVQSGRSLRLSCAASGFTFDDYAMHWVRQPPGKGLEWVSGINWNRGRTGYADSVKGRFTISRDNAKNSLYLQMNDLRVEDTALYYCAKAEQWLDEGYFDYWGQGTLVTVSS
VL: not shown
notes: Human IgG4 Fc (H4H prefix)
- Kd [17]: 551 nM
- Kd [12]: 291 nM
- koff [12]: 0.0134 s⁻¹
- kon [12]: 46000 M⁻¹ s⁻¹
- t½ [12]: 0.9 min
- IC50 [18]: 0.19 nM

B8: H4xH9045P (antibody, human IgG4, V domains shown)
VH: EVQLVESGGGLVQPGRSLRLSCAASGFTFDDYDMHWVRQAPGKGLEWVSGSGWNRGSLGYADSVKGRFTISRDNAKKSLYLQMNSVRVEDTALYYCAKGFVVVSAAYFDYWGQGTLVTVSS
VL: not shown
notes: H4xH: modified human IgG4 Fc; also called H4xH9045P2
- Kd [19]: 7540 nM
- Kd [12]: 74.6 nM
- koff [12]: 0.00403 s⁻¹
- kon [12]: 54000 M⁻¹ s⁻¹
- t½ [12]: 2.9 min

B9: H4H9068P2 (antibody, human IgG4, V domains shown)
VH: EVQLVESGGGLVQRGGSLRLSCAASGFSFSSYAMNWVRQAPGKGLEWVSTISDSGGSTYYADSVKGRFTISRDNSKNTLSLQMNSLRAEDTAVYYCAKDQGGSYPYYFHYWGQGTLVTVSS
VL: not shown
notes: Human IgG4 Fc (H4H prefix)
- Kd (monkey PD-1 with mFc [20]): 54.2 nM
- Kd (monkey PD-1 with mFc [21]): 86.3 nM

B10: H4xH9048P2 (antibody, human IgG4, V domains shown)
VH: QVQLVQSGAEVKRPGSSVKVSCKVSGVTFRNFAIIWVRQAPGQGLEWMGGIIPFFSAANYAQSFQGRVTITPDESTSTAFMELASLRSEDTAVYYCAREGERGHTYGFDYWGQGTLVTVSS
VL: not shown
notes: H4xH: modified human IgG4 Fc
- Kd [12]: 8.95 nM
- koff [12]: 0.00123 s⁻¹
- kon [12]: 137000 M⁻¹ s⁻¹
- t½ [12]: 9.4 min
- IC50 [22]: 3.3 nM
